Source: patent US20050027104A1

Tests used:
[1] = molecular target: human IgD (probe or solid phase; preparation not specified at the place) (human) (UniProt P01880); experiment: SDS-PAGE and Western blot with IgD after 60 C treatment, densitometry, 6 experiments; reference: monomeric MID962-1200
[2] = molecular target: surface-expressed B cell receptor (BCR) IgD on human CD19+ peripheral blood lymphocytes (human) (UniProt P01880); experiment: flow cytometry, MID-FITC on PBLs preincubated with rabbit anti-human IgD immunoglobulin fraction (competitor)
[3] = molecular target: One of the two myelomas (purified IgD(κ) or IgD(λ); which one is not stated); experiment: dot blot, purified MID in dilutions on membrane, IgD myeloma protein as probe
[4] = molecular target: surface-expressed B cell receptor (BCR) IgD on human CD19+ peripheral blood lymphocytes (human) (UniProt P01880); experiment: flow cytometry, MID-FITC on PBLs incubated with the pre-immune serum (no blocking)

UniProt P01880, sequence (P01880 whole entry): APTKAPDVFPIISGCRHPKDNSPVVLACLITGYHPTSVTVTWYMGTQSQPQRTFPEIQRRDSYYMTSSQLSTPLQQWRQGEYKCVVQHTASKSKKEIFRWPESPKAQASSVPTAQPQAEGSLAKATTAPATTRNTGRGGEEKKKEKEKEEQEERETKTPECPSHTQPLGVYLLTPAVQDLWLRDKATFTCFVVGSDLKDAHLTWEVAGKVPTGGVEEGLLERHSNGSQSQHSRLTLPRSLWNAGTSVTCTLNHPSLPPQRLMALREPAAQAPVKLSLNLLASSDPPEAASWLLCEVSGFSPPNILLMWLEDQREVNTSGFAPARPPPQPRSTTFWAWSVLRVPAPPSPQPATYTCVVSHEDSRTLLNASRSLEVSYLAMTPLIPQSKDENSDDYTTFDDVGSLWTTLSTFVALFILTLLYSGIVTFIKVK

MID962-1200 (F2), tetrameric form
fold more efficient binding to IgD than the monomeric form [1]: 23 fold

MID, IgD-binding surface exposed protein purified from Moraxella catarrhalis strain Bc5 (native full length MID1-2139)
Mean fluorescence intensity (arbitrary units) [2]: 14.6
least amount of MID detected on the membrane [3]: 0.001 µg
Mean fluorescence intensity (arbitrary units) [4]: 79.2
